{"source": "paper doi:10.1101/2021.05.23.445342", "key": {"[1]": {"molecular_target": "Calcineurin (human PPP3CA / PPP3R1 heterodimer) (human) (UniProt Q08209)", "assay": "AUC"}, "[2]": {"molecular_target": "Biotin-Cys-AKAP5c_(ILVF->SA) (human) (UniProt P24588)", "assay": "SPR"}, "[3]": {"molecular_target": "Biotin-Cys-AKAP5c (human) (UniProt P24588)", "assay": "SPR"}}, "note": "Values joined by “and” are separate entries in the source; they are usually repeats but may differ in a detail not shown here. Equal values may be shown once.", "data": [{"substance": "Calcineurin (human PPP3CA / PPP3R1 heterodimer) (from UniProt Q08209 1-521; P63098 1-170) (complex)", "values": [{"measurement": "Kd", "setting": "[1]", "value": 100000, "unit": "nM"}, {"measurement": "percent heterotetramer", "setting": "[1]", "value": 8, "unit": "%"}, {"measurement": "Kd of the one main surface site class", "setting": "[2]", "value": "100 nM and 1000 nM"}, {"measurement": "Kd of a further surface site class", "setting": "[3]", "value": "1000 to 10000", "unit": "nM"}, {"measurement": "Kd of surface site class 1 (one or possibly two very similar sites)", "setting": "[3]", "value": "10 to 100", "unit": "nM"}]}]}
